# Target: fbx31_human FBXO31 (UniProt Q5XUX0)
# Chain of UniProt Q5XUX0 (Q5XUX0 whole entry): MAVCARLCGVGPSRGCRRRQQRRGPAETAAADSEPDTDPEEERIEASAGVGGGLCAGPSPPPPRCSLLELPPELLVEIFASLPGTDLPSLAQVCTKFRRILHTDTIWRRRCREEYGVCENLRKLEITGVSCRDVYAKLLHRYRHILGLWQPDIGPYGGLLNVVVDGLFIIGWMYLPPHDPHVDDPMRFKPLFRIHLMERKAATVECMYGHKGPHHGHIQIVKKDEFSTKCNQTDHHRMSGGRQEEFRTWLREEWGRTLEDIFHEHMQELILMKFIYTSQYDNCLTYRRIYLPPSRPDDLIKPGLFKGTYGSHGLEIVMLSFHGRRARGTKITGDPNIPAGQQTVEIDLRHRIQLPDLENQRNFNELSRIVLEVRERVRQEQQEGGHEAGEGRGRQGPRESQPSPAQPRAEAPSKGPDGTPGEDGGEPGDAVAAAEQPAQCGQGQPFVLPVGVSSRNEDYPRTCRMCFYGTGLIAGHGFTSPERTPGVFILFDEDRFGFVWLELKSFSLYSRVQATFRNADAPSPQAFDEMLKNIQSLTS
substance,measurement,value
"Serine-protein kinase ATM (Homo sapiens), Q13315 D2870A;N2875K",effect of a mutation on the interaction,disrupting interaction
